Laboratory results as given in patent US20200277377A1 (WUXI BIOLOGICS SHANGHAI, published 2020).
Residue numbers refer to the chain shown, from its start. One block for each binder: values may come before it.

Columns and labels:
[1] = target: T1, murine CTLA-4 (Example 3 ELISA, construct not stated) (mouse, UniProt P09793 36-161, limits assumed); experiment: ELISA, antibody titrated on mouse CTLA-4, OD450
T1 construct: also called mouse CTLA-4
Procedure: (§1) The antibodies were tested on CTLA-4-binding ELISA.
(§2) ELISA was used to test binding of anti-human CTLA-4 antibodies to human, murine and cynomolgus monkey CTLA-4 protein. A 96-well plate was coated with human CTLA-4.ECD-6×His (1.0 μg/mL), cynomoguls monkey CTLA-4.ECD-6×His (0.5 μg/mL) or mouse CTLA-4.ECD-6×His (0.5 μg/mL) at 4° C. for 16-20 hours. After 1 hour blocking with 2% BSA in DBPS, testing antibodies, as well as positive and negative control antibodies were added to the plates and incubated at room temperature for 1 hour. The binding of the antibodies to the plates were detected by HRP-conjugated goat anti-human IgG antibody (1:5000 dilution) with 1 hour incubation. The color was developed by dispensing 100 μL of TMB substrate for 8 mins, and then stopped by 100 μL of 2N HCl.

[2] = target: T2, human CTLA-4 (Example 3 ELISAs, construct not stated) (human, UniProt P16410 36-161); experiment: competition ELISA: coated human CTLA-4, antibody mixed with biotinylated CD80, bound ligand detected with streptavidin-HRP [A) CD80]
T2 sequence (looked up): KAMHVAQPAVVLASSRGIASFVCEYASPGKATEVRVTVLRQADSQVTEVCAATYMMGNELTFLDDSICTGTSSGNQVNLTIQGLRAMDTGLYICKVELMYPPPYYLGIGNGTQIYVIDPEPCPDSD
Procedure: (§3) Both ELISA and FACS were used as the competition assays. In ELISA based competition assay, human CTLA-4 was coated on the plates, and the antibodies mixed with biotinylated ligands were added into the plate. The bound ligands were detected by HRP conjugated streptavidin.

[3] = target: T3, monkey CTLA-4 (Example 3 ELISA, construct not stated) (cynomolgus monkey, UniProt G7PL88 36-161); experiment: ELISA, antibody titrated on cyno CTLA-4, OD450
T3 construct: also called cyno CTLA-4
T3 sequence: T2 sequence (looked up) with S14N, I18T, L106M
Procedure: as §1, §2

[4] = target: T2, human CTLA-4 (Example 3 ELISAs, …); experiment: ELISA, antibody titrated on human CTLA-4, OD450
Procedure: as §1, §2

[5] = target: T4, biotinylated human CTLA-4 (Example 3 FACS competition) (human, UniProt P16410 36-161, limits assumed, biotinylated (sites not given)); experiment: competition FACS: antibody mixed with biotinylated human CTLA-4, added to CD80-expressing cells (panel title W316-CHO-K1.hPro1.L1), bound CTLA-4 detected with streptavidin-PE [A]
T4 sequence (looked up): T2 sequence (looked up)
Procedure: as §3
(§4) Then the mixtures of antibody and CTLA-4 were added to the cells and incubated for 1 hour at 4° C. The cells were washed two times with 200 μL FACS buffer (DPBS containing 1% BSA). Streptavidin PE 1 to 333 diluted in FACS buffer was added to the cells and incubated at 4° C. for 1 hour.

[6] = target: T4, biotinylated human CTLA-4 (Example 3 …); experiment: competition FACS: antibody mixed with biotinylated human CTLA-4, added to CD86-expressing cells (panel title W316-CHO-K1.hPro1.L2), bound CTLA-4 detected with streptavidin-PE [B]
Procedure: as §3, §4

[7] = target: T2, human CTLA-4 (Example 3 ELISAs, …); experiment: competition ELISA: coated human CTLA-4, antibody mixed with biotinylated CD86, bound ligand detected with streptavidin-HRP [B) CD86]
Procedure: as §3
Plates were coated with human CTLA-4.ECD.hFc (0.5 μg/mL) at 4° C. for 16-20 hours. […] After washing three times with PBS containing 0.05% Tween 20, biotinylated anti-His tag antibody was 1:2000 diluted and added. The plates were incubated at room temperature for 1 hour. The bound ligands were detected by HRP conjugated streptavidin (1:20000).

[8] = target: T5, human CTLA-4.ECD-6×His (human, UniProt P16410 36-161); experiment: SPR, antibody captured on anti-human Fc, CTLA-4 ECD as analyte, 1:1 fit
T5 construct: extracellular domain; also called WBP316.hCTLA-4.ECD-6×His; hCTLA4-His (WT)
T5 sequence: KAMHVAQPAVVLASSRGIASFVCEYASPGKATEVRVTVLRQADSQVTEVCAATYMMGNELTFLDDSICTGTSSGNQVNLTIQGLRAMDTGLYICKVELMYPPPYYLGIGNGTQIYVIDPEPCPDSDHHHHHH
Procedure: The binding kinetics of four antibodies were measured using SPR. The antibodies were captured on immobilized goat anti-human Fc, and then human CTLA-4 ECD at different concentration was injected orderly. The sensorgrams for reference channel and buffer channel were subtracted from the test sensorgrams. The data was used to fit in 1:1 binding analysis.
(§5) Biacore T200, Series S Sensor Chip CMS, Amine Coupling Kit, and 10×HBS-EP were purchased from GE Healthcare. […] In immobilization step, the activation buffer was prepared by mixing 400 mM EDC and 100 mM NHS immediately prior to injection. The CM5 sensor chip was activated for 420 s with the activation buffer. 30 μg/mL of goat anti-human IgG Fcγ antibody in 10 mM NaAc (pH 4.5) was then injected to Fc1-Fc4 channels for 200 s at a flow rate of 5 μL/min. The chip was deactivated by 1 M ethanolamine-HCl (GE). Then the antibodies were captured on the chip. Briefly, 4 μg/mL antibodies in running buffer (HBS-EP+) was injected individually to Fc3 channel for 30 s at a flow rate of 10 μL/min. […] Regeneration buffer (10 mM Glycine pH 1.5) was injected at 10 μL/min for 30 s following every dissociation phase.

[9] = target: T6, cynomolgus monkey CTLA-4 ECD-6×His (cynomolgus monkey); experiment: SPR, antibody captured on anti-human Fc, CTLA-4.ECD-6×His as analyte, 1:1 fit
T6 construct: extracellular domain; Bought; also called cynomoguls monkey CTLA-4.ECD-6×His
Procedure: as §5
(§6) The binding kinetics of these antibodies were measured using SPR. The antibodies were captured on immobilized anti-human Fc and CTLA-4-ECD at different concentration was injected orderly. The sensorgrams for reference channel and buffer channel were subtracted from the test sensorgrams. The data was used for 1:1 binding analysis on human, monkey and mouse CTLA-4.ECD-6×His.

[10] = target: T5, human CTLA-4.ECD-6×His; experiment: as above
Procedure: as §5, §6

[11] = target: T1, murine CTLA-4 (Example 3 ELISA, …); experiment: ELISA; ELISA, murine CTLA-4
Procedure: as §1, §2

[12] = target: T7, full length human CTLA-4 on cells (human, UniProt P16410 36-223); experiment: FACS on CTLA-4-expressing cell line
T7 construct: whole, on cells; also called CTLA-4-expressing cell line
T7 sequence (looked up): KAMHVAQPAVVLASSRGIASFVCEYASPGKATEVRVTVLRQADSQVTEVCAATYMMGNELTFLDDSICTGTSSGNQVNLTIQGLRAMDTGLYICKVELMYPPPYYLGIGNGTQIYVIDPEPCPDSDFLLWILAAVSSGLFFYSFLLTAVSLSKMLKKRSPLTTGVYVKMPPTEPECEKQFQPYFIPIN

[13] = target: T8, Murine CTLA-4.ECD-6×His (mouse, UniProt P09793 36-161); experiment: SPR, antibody captured on anti-human Fc, CTLA-4.ECD-6×His as analyte, 1:1 fit
T8 construct: extracellular domain; Bought; also called mouse CTLA-4.ECD-6×His; mouse CTLA-4 ECD
Procedure: as §5, §6

B1: W3162-1.145.10 xAb.IgG1 (antibody, V domains shown)
VH: EVQLVESGGGLVQPGRSLKLSCAASDLTFSNYDMAWVRQTPTKGLEWVASISPNGGNTYYRDSVKGRFTVSRDNAKNSLYLQMDSLRSEDTATYYCARHLWFAYWGQGTLVTVSS
VL: DIQMTQSPSSMSASLGDRVTISCQASQDIGSNLIWFQQKPGKSPRPMIYYATHLADGVPSRFSGSRSGSDYSLTISSLESEDVADYHCLQYKQYPRTFGGGTKLELK
notes: Chimeric: rat variable regions fused with constant region of human antibody (label xAb.IgG1)
- binding result [1]: no binding (tested: about 20 nM)
- IC50 (read off the curve) [2]: ~0.3 nM
- EC50 (read off the curve) [3]: ~0.1 nM
- EC50 (read off the curve) [4]: ~0.01 nM
- IC50 (read off the curve) [5]: ~1 nM
- IC50 (read off the curve) [6]: ~0.3 nM
- IC50 (read off the curve) [7]: ~0.4 nM
- Kd [8]: 2.08 nM
- koff [8]: 0.0165 s⁻¹
- kon [8]: 7.93e+06 M⁻¹ s⁻¹
- Kd [9]: 0.355 nM
- koff [9]: 0.00377 s⁻¹
- kon [9]: 1.06e+07 M⁻¹ s⁻¹
- Kd [10]: 2.08 nM
- koff [10]: 0.0165 s⁻¹
- kon [10]: 7.93e+06 M⁻¹ s⁻¹

B2: W3162_1.145.10-z7-uAb.IgG1K (antibody, V domains shown)
VH: B1 VH with R16G, K19R, T40A, T42G, N54S, V70I, D84N, S88A, T93V
VL: DIQMTQSPSSLSASVGDRVTITCQASQDIGSNLIWFQQKPGKAPKPMIYYATHLADGVPSRFSGSRSGTDYTLTISSLQPEDFATYYCLQYKQYPRTFGGGTKVEIK
notes: Humanized; label says IgG1K; also called W145
- Kd [9]: 0.598 nM
- koff [9]: 0.00271 s⁻¹
- kon [9]: 4.52e+06 M⁻¹ s⁻¹
- Kd [10]: 1.84 nM
- koff [10]: 0.0135 s⁻¹
- kon [10]: 7.37e+06 M⁻¹ s⁻¹

B3: W3162-1.146.19 xAb.IgG1 (antibody, V domains shown)
VH: EVQLQESGPGLVKPSQSLSLTCSVTYHTITSGYDWTWIRKFPGNQMEWMGYISYSGNTNYNPSLKSRISITRDTSKNQFFLHLNSVTSEDTATYYCASMMVPHYYVMDAWGQGASVTVSS
VL: DVVLTQTPPTSSATIGQSVSISCRSSQSLLNSDGNTYLYWYLQRPSQSPQLLIYLVSKLGSGVPNRFSGSGSGTDFTLKISGVEAEDLGLYYCVQGTHDPWTFGGGTKLELK
notes: as for B1
- IC50 (read off the curve) [2]: ~0.7 nM
- EC50 (read off the curve) [3]: ~0.1 nM
- EC50 (read off the curve) [4]: ~0.04 nM
- IC50 (read off the curve) [6]: ~1 nM
- IC50 (read off the curve) [7]: ~0.8 nM
- EC50 [11]: 0.01 nM
- Kd [8]: 0.208 nM
- koff [8]: 0.000148 s⁻¹
- kon [8]: 709000 M⁻¹ s⁻¹
- EC50 [12]: 3.25 nM
- Kd [9]: 0.369 nM
- koff [9]: 0.000107 s⁻¹
- kon [9]: 291000 M⁻¹ s⁻¹
- Kd [13]: 0.906 nM
- koff [13]: 0.000228 s⁻¹
- kon [13]: 251000 M⁻¹ s⁻¹
- Kd [10]: 0.208 nM
- koff [10]: 0.000148 s⁻¹
- kon [10]: 709000 M⁻¹ s⁻¹

Other lines, results leading:

- binding result [1]: no binding (tested: about 20 nM)
- IC50 (read off the curve) [2]: ~0.3 nM
- EC50 (read off the curve) [3]: ~0.08 nM
- EC50 (read off the curve) [4]: ~0.05 nM
- IC50 (read off the curve) [6]: ~0.08 nM
- IC50 (read off the curve) [7]: ~0.4 nM
- Kd [8]: 0.068 nM
- koff [8]: 0.000125 s⁻¹
- kon [8]: 1.85e+06 M⁻¹ s⁻¹
- EC50 [12]: 1.26 nM
- Kd [9]: 0.0872 nM
- koff [9]: 0.000109 s⁻¹
- kon [9]: 1.25e+06 M⁻¹ s⁻¹
- Kd [10]: 0.068 nM
- koff [10]: 0.000125 s⁻¹
- kon [10]: 1.85e+06 M⁻¹ s⁻¹
B4: W3162-1.154.8 xAb.IgG1 (antibody, V domains shown)
VH: EVQLQQSGPEAGRPGSSVKISCKASGYTFTNYFMNWVKQSPGQGLEWIGRVDPENGRADYAEKFKKKATLTADTTSNTAYIHLSSLTSEDTATYFCARRAMDNYGFAYWGQGTLVTVSS
VL: EIMLTQSPTIMAASLGEKITITCSANSSLSYMYWFQQKSGASPKLWVHGTSNLASGVPDRFSGSGSGTSYYLTINTMEAEDAATYFCHHWSNTQWTFGGGTKLELK
notes: as for B1

- binding result [1]: no binding (tested: about 20 nM)
- EC50 (read off the curve) [3]: ~0.1 nM
- EC50 (read off the curve) [4]: ~0.04 nM
- IC50 (read off the curve) [6]: ~20 nM
- IC50 (read off the curve) [7]: ~0.5 nM
- Kd [8]: 0.1 nM
- koff [8]: 6.97e-05 s⁻¹
- kon [8]: 695000 M⁻¹ s⁻¹
B5: W3162-1.101.2 xAb.IgG1 (antibody, V domains shown)
VH: EEQLVESGGGLVQPGKSLKLSCSASGFTFRSSAMHWIRQPPGKGLDWVAFISSGGDTAYADAVKGRFIVSRDNAENTLFLQLNSLKSEDTAIYYCVRMERIPTWGQGVMVTVSS
VL: DIVLTQSPVLAVSLGQRATISCRASQSVSISSINLIHWYQQRPGQQPKLLIYRTSNLASGIPARFSGSGSGTDFTLSIDPVQADDVADYYCQQSRESPLTFGSGTKLEIK
notes: as for B1
